Source: IntAct's records for PubMed 29892012

B1: Isoform 2 of Synaptoporin (Homo sapiens), Q8TBG9-2 (parent)
chain: MDPVSQLASAGTFRVLKEPLAFLRALELLFAIFAFATCGGYSGGLRLSVDCVNKTESNLSIDIAFAYPFRLHQVTFEVPTCEGKERQKLALIGDSSSSAEFFVTVAVFAFLYSLAATVVYIFFQNKYRENNRGPLIDFIVTVVFSFLWLVGSSAWAKGLSDVKVATDPKEVLLLMSACKQPSNKCMAIHSPVMSSLNTSVVFGFLNFILWAGNIWFVFKETGWHSSGQRYLSDPMEKHSSSYNQGGYNQDSYGSSSGYSQQASLGPTSDEFGQQPTGPTSFTNQI
B2: Angio-associated migratory cell protein (Homo sapiens), Q13685 (parent)
chain: MESESESGAAADTPPLETLSFHGDEEIIEVVELDPGPPDPDDLAQEMEDVDFEEEEEEEGNEEGWVLEPQEGVVGSMEGPDDSEVTFALHSASVFCVSLDPKTNTLAVTGGEDDKAFVWRLSDGELLFECAGHKDSVTCAGFSHDSTLVATGDMSGLLKVWQVDTKEEVWSFEAGDLEWMEWHPRAPVLLAGTADGNTWMWKVPNGDCKTFQGPNCPATCGRVLPDGKRAVVGYEDGTIRIWDLKQGSPIHVLKGTEGHQGPLTCVAANQDGSLILTGSVDCQAKLVSATTGKVVGVFRPETVASQPSLGEGEESESNSVESLGFCSVMPLAAVGYLDGTLAIYDLATQTLRHQCQHQSGIVQLLWEAGTAVVYTCSLDGIVRLWDARTGRLLTDYRGHTAEILDFALSKDASLVVTTSGDHKAKVFCVQRPDR
partner: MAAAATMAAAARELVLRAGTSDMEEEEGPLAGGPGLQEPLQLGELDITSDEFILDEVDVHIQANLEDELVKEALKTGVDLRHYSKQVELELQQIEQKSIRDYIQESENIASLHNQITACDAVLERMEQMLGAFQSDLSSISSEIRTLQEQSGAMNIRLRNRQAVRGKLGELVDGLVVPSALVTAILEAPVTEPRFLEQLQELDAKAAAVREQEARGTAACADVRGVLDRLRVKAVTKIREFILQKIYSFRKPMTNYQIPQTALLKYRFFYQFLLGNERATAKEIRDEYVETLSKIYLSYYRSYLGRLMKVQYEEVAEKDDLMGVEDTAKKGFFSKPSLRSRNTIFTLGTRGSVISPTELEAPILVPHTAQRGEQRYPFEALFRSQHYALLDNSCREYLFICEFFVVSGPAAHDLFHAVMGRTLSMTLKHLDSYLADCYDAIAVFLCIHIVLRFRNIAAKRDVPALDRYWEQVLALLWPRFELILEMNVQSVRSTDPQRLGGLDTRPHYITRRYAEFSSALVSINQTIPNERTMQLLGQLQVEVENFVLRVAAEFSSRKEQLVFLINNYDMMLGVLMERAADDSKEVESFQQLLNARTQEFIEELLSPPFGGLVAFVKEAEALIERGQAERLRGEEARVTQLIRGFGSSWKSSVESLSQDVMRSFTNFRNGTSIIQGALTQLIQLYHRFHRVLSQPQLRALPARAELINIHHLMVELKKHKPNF
B3: E3 ubiquitin-protein ligase LNX (Homo sapiens), Q8TBB1 (parent)
chain: MNQPESANDPEPLCAVCGQAHSLEENHFYSYPEEVDDDLICHICLQALLDPLDTPCGHTYCTLCLTNFLVEKDFCPMDRKPLVLQHCKKSSILVNKLLNKLLVTCPFREHCTQVLQRCDLEHHFQTSCKGASHYGLTKDRKRRSQDGCPDGCASLTATAPSPEVSAAATISLMTDEPGLDNPAYVSSAEDGQPAISPVDSGRSNRTRARPFERSTIRSRSFKKINRALSVLRRTKSGSAVANHADQGRENSENTTAPEVFPRLYHLIPDGEITSIKINRVDPSESLSIRLVGGSETPLVHIIIQHIYRDGVIARDGRLLPGDIILKVNGMDISNVPHNYAVRLLRQPCQVLWLTVMREQKFRSRNNGQAPDAYRPRDDSFHVILNKSSPEEQLGIKLVRKVDEPGVFIFNVLDGGVAYRHGQLEENDRVLAINGHDLRYGSPESAAHLIQASERRVHLVVSRQVRQRSPDIFQEAGWNSNGSWSPGPGERSNTPKPLHPTITCHEKVVNIQKDPGESLGMTVAGGASHREWDLPIYVISVEPGGVISRDGRIKTGDILLNVDGVELTEVSRSEAVALLKRTSSSIVLKALEVKEYEPQEDCSSPAALDSNHNMAPPSDWSPSWVMWLELPRCLYNCKDIVLRRNTAGSLGFCIVGGYEEYNGNKPFFIKSIVEGTPAYNDGRIRCGDILLAVNGRSTSGMIHACLARLLKELKGRITLTIVSWPGTFL
partner: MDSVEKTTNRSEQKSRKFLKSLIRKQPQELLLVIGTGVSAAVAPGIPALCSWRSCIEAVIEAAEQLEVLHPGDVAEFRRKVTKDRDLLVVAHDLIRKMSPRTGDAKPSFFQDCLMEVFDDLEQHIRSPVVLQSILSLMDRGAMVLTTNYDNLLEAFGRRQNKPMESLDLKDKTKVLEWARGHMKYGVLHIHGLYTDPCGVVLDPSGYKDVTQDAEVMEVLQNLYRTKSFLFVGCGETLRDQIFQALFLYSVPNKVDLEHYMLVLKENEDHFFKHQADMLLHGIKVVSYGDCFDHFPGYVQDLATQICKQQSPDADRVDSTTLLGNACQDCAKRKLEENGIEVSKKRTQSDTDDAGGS
B4: Muscleblind-like protein 1 (Homo sapiens), Q9NR56 (parent)
chain: MAVSVTPIRDTKWLTLEVCREFQRGTCSRPDTECKFAHPSKSCQVENGRVIACFDSLKGRCSRENCKYLHPPPHLKTQLEINGRNNLIQQKNMAMLAQQMQLANAMMPGAPLQPVPMFSVAPSLATNASAAAFNPYLGPVSPSLVPAEILPTAPMLVTGNPGVPVPAAAAAAAQKLMRTDRLEVCREYQRGNCNRGENDCRFAHPADSTMIDTNDNTVTVCMDYIKGRCSREKCKYFHPPAHLQAKIKAAQYQVNQAAAAQAAATAAAMTQSAVKSLKRPLEATFDLGIPQAVLPPLPKRPALEKTNGATAVFNTGIFQYQQALANMQLQQHTAFLPPVPMVHGATPATVSAATTSATSVPFAATATANQIPIISAEHLTSHKYVTQM
partner: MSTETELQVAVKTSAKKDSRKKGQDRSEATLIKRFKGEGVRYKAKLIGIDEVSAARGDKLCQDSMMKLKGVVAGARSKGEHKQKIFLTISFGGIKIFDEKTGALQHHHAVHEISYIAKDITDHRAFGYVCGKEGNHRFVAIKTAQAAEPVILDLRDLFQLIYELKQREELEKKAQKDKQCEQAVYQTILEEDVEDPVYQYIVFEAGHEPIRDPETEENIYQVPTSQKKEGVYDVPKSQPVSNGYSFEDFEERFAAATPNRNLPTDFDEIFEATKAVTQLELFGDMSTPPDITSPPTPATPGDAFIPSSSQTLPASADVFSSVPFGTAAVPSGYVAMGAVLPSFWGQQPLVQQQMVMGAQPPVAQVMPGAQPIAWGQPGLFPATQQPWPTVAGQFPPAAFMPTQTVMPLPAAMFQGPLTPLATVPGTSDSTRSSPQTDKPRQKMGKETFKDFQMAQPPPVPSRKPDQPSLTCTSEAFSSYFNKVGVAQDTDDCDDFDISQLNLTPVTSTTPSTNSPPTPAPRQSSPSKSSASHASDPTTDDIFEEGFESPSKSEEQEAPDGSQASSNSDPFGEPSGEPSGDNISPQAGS
B5: Rho guanine nucleotide exchange factor 3 (Homo sapiens), Q9NR81 (parent)
chain: MVAKDYPFYLTVKRANCSLELPPASGPAKDAEEPSNKRVKPLSRVTSLANLIPPVKATPLKRFSQTLQRSISFRSESRPDILAPRPWSRNAAPSSTKRRDSKLWSETFDVCVNQMLTSKEIKRQEAIFELSQGEEDLIEDLKLAKKAYHDPMLKLSIMTEQELNQIFGTLDSLIPLHEELLSQLRDVRKPDGSTEHVGPILVGWLPCLSSYDSYCSNQVAAKALLDHKKQDHRVQDFLQRCLESPFSRKLDLWNFLDIPRSRLVKYPLLLREILRHTPNDNPDQQHLEEAINIIQGIVAEINTKTGESECRYYKERLLYLEEGQKDSLIDSSRVLCCHGELKNNRGVKLHVFLFQEVLVITRAVTHNEQLCYQLYRQPIPVKDLLLEDLQDGEVRLGGSLRGAFSNNERIKNFFRVSFKNGSQSQTHSLQANDTFNKQQWLNCIRQAKETVLCAAGQAGVLDSEGSFLNPTTGSRELQGETKLEQMDQSDSESDCSMDTSEVSLDCERMEQTDSSCGNSRHGESNV
partner: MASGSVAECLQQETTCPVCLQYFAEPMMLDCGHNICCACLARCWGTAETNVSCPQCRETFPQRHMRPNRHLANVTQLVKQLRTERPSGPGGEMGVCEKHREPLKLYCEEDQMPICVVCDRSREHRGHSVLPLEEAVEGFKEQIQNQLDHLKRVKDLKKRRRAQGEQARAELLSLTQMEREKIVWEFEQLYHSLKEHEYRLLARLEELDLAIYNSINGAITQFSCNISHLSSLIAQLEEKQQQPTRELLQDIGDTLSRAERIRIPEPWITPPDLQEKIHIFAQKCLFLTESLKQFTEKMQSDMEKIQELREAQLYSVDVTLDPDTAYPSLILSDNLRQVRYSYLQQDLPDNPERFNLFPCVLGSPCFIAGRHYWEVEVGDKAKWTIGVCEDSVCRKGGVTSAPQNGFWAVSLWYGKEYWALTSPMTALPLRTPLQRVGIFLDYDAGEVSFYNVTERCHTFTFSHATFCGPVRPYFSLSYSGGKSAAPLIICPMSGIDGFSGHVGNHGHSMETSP

Variants of: B1
Conditions: with creb3_human CREB3, O43889
creb3_human CREB3, O43889, sequence (O43889 whole entry): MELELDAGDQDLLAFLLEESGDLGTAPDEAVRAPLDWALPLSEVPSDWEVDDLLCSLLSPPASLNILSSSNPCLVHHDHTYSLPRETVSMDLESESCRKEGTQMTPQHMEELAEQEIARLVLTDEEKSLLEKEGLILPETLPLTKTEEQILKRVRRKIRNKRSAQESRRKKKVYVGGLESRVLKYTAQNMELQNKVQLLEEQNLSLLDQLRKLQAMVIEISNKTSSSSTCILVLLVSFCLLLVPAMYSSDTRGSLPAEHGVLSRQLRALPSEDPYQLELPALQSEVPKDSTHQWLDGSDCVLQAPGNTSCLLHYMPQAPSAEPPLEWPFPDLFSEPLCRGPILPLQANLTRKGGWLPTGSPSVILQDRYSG

| effect of a mutation on the interaction | Variant |
| --- | --- |
| with no effect | A115P |

Variants of: B2
Conditions: with vps52_human VPS52, Q8N1B4

| effect of a mutation on the interaction | Variant |
| --- | --- |
| with no effect | I343F |

Variants of: B3
Conditions: with FAM118A

| effect of a mutation on the interaction | Variant |
| --- | --- |
| disrupting interaction strength | E295K |

Variants of: B4
Conditions: with dab1_human DAB1, O75553

| effect of a mutation on the interaction | Variant |
| --- | --- |
| with no effect | V45A |

Variants of: B5
Conditions: with tri27_human TRIM27, P14373

| effect of a mutation on the interaction | Variant |
| --- | --- |
| with no effect | P34S |
